± gives the uncertainty stated by the source.
Assay: amyloid nucleation score (Sup35N fusion, yeast selection) (log enrichment); library NNK1; higher = more nucleation; inactive = no reads after selection
In short: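 Peptides of 20 random codons, each fused to Sup35N, were expressed in psi-negative yeast. Cells were induced with 100 μM copper sulfate for 24 hours and grown 7 days at 30°C on medium lacking adenine and uracil, and plasmid inserts before and after selection were Illumina-sequenced. Nucleation scores are DiMSum log enrichments of output over input reads, centred on the mode score of non-aggregating sequences, and sequences under 100 input reads were excluded.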
DCNLSSYLVYWAFHYDKLMS showed an amyloid nucleation score of 0.083 ± 0.58. Work on KVGHANVADFPIWRRNLFG yielded an amyloid nucleation score of -0.544 ± 0.84. In the case of ISVGCF, the amyloid nucleation score is reported as 0.201 ± 0.49. FCGDVKLMYWSRFVLMKGHQ showed an amyloid nucleation score of -1.18 ± 1.1. Substance DAMWEMRVTTVRALARVCVC has an amyloid nucleation score of 0.236 ± 1.1. RPPNISLSQFYDVSCAKLRC gave an amyloid nucleation score of 0.295 ± 0.31. For RIRNSEAGMLYTLYVTRLVD, the amyloid nucleation score was -0.007 ± 0.31. AAKRSETAP showed an amyloid nucleation score of -0.308 ± 0.43. SFGANYTLILTVIIQRLADQ gave an amyloid nucleation score of 6.31 ± 0.083. For DYYVVLDMQQVFEGGCRFFR, the amyloid nucleation score was 0.498 ± 0.46. With CSWFVYSNFFSHQMADMEWL the amyloid nucleation score was 0.183 ± 0.58. In the case of HRIWRLLALNT, the amyloid nucleation score is reported as -0.583 ± 0.54. VNYPEDPTSKEIIRHSLGTG gave an amyloid nucleation score of -1.13 ± 2.4. SRRSYSYFGIIICVNCSDTS gave an amyloid nucleation score of 8.583 ± 0.057. GSYGNDVWRP gave an amyloid nucleation score of -0.041 ± 0.47. Work on SQIADHIRSPRNL yielded an amyloid nucleation score of -1.37 ± 2.1. DCRQTAKHFPETSDNLYRLT gave an amyloid nucleation score of -0.2 ± 0.28. YHVWTFWRRLETRINFQM gave an amyloid nucleation score of 1.13 ± 0.98. For VYHVTWRLPF, the amyloid nucleation score was 3.4 ± 0.12. For GGCVGLCFRYSFPTCDSC, the amyloid nucleation score was 1.65 ± 0.42. With MLRTQQFSLLFEYHVHGEGG the amyloid nucleation score was 3.75 ± 0.075. In the case of IINERSANLYDFVVIDRSWL, the amyloid nucleation score is reported as -1.04 ± 0.69. Substance RWGGDALNAWHASDSSVGLR has an amyloid nucleation score of -1.01 ± 0.73. For NFCDSSGI, the amyloid nucleation score was -0.912 ± 1.2. Substance CYSMNEFFGNLHVSTRTHGK has an amyloid nucleation score of -0.944 ± 0.66. With LYGYSI the amyloid nucleation score was 0.778 ± 0.41. With FNSRAICGEIVNIPHQSPGD the amyloid nucleation score was 1.16 ± 0.67. For FNDRPVWVFCLRWWDSSVNS, the amyloid nucleation score was -0.857 ± 0.84. With DNSPSSWFDWDLGEIGVRVE the amyloid nucleation score was -0.469 ± 1. For RSNYVDVSGLSYGGLIAL, the amyloid nucleation score was “inactive”. APHTTTLTRKSFDNGCGGFG gave an amyloid nucleation score of 0.001 ± 0.38. For MNNCKGTI, the amyloid nucleation score was -0.679 ± 0.79. In the case of LYTKFFEAMWQVWRFERTQR, the amyloid nucleation score is reported as 2.53 ± 0.21. With GVGSSFSTSKAYWVGYECIT the amyloid nucleation score was -0.217 ± 0.41. For TKSRRSEGCEMPCHCNEVFV, the amyloid nucleation score was 0.497 ± 0.72. Work on VLGSVIGFLWNP yielded an amyloid nucleation score of 2.23 ± 0.088. Work on GGSFYKAILFNRKCVYVGSR yielded an amyloid nucleation score of 0.942 ± 0.51. Work on VLTNESRGYTIRLGSYSRFV yielded an amyloid nucleation score of 2.4 ± 0.49. For TVSMDVLYMIGGCLLCVV, the amyloid nucleation score was 0.209 ± 0.41. CMSVVNLRCPDRTLVSLLPY showed an amyloid nucleation score of -0.326 ± 1.1. For VRLLTFDITSLFRVFYVKHR, the amyloid nucleation score was 0.103 ± 0.67. For ISQVYGDNTDFVLLVSSDNV, the amyloid nucleation score was 0.544 ± 0.33. In the case of IFILIRYWHCITSSPDVGFG, the amyloid nucleation score is reported as -0.246 ± 0.61. In the case of IILSAHVLSRTFLAFVSQKE, the amyloid nucleation score is reported as 0.146 ± 0.77. Substance VITVSGSEGEIEWSS has an amyloid nucleation score of -1.64 ± 2.7. MWGTCSYSYLDSCRVTLFMR showed an amyloid nucleation score of 2.06 ± 0.2. In the case of KWLLTDDLRSGISAWWECPL, the amyloid nucleation score is reported as -0.233 ± 0.62. With LGPDSLHLFGMVGSGRLNIL the amyloid nucleation score was -0.029 ± 0.88. PLVSTHALSAGILYCFKFYR showed an amyloid nucleation score of 5.57 ± 0.097. In the case of INTFARRAVVSSLSWSLACH, the amyloid nucleation score is reported as 0.317 ± 0.64. NCYMIFVKRLPLC gave an amyloid nucleation score of 0.023 ± 0.41. Substance PSRLIYDYAAFTVVGLLEMF has an amyloid nucleation score of -0.235 ± 0.56. Work on LFQSA yielded an amyloid nucleation score of 0.854 ± 0.17. Substance QCCLNVLDC has an amyloid nucleation score of 7.65 ± 0.084. Work on FLKFDTSMVVLGWTFLMESF yielded an amyloid nucleation score of -0.023 ± 0.41. In the case of SYHLLMHMGIGQTLYKTRYD, the amyloid nucleation score is reported as 1.98 ± 0.21. CTMLCFQALRLLGRRILFQA gave an amyloid nucleation score of -0.361 ± 0.48. KLIFKRSFNRMDLSSLCYFR gave an amyloid nucleation score of -0.471 ± 0.39. Substance HRCQSSSRRPMNGFGTCQRS has an amyloid nucleation score of 0.321 ± 0.34. In the case of IFSSGYAKAFVHLVCSVAQL, the amyloid nucleation score is reported as -0.458 ± 0.45. In the case of RVRGSASMLLSLMCSFTMYE, the amyloid nucleation score is reported as 3.3 ± 0.14. In the case of HMSWMYEWMNVTCKVNMCR, the amyloid nucleation score is reported as 2.06 ± 0.24. Substance TQDEMVSVRNKLSCVTLE has an amyloid nucleation score of 4.04 ± 0.06. With LEGLRQDEVGRSASKTVKYS the amyloid nucleation score was 1.18 ± 0.76. In the case of VSMHYYAGTYSLNNSLV, the amyloid nucleation score is reported as -0.819 ± 1.1. Work on CIFFVNTGHGYLWQDYAHSN yielded an amyloid nucleation score of 3.58 ± 0.15. In the case of HCLGIRMVRRYILDRRCHWV, the amyloid nucleation score is reported as “inactive”. For IHNSVDKTYLCSVLNPRGYS, the amyloid nucleation score was “inactive”. Substance LRHRKSRNRVSCHCLGHGCW has an amyloid nucleation score of 1.54 ± 0.84. Substance FIDIACAHFGMKSCVVL has an amyloid nucleation score of 1.32 ± 0.9. VRFWTLEFSPVRFSS showed an amyloid nucleation score of -1.11 ± 0.86. Work on SNIREPDFRCIGLATF yielded an amyloid nucleation score of 0.523 ± 0.7. SIDTPYFALNRCALIHTSFT gave an amyloid nucleation score of 0.825 ± 0.52. MHFIRALIEFH showed an amyloid nucleation score of 1.88 ± 0.2. With ARWKKQWFYT the amyloid nucleation score was 0.796 ± 0.58. Substance RHPSWLYDVFNIVLVITACW has an amyloid nucleation score of -0.062 ± 0.97. For NYLLWVAHPIVSY, the amyloid nucleation score was -0.502 ± 0.34. Substance VEFFFDF has an amyloid nucleation score of -0.417 ± 0.77. Work on PCTMGMYIGAGHR yielded an amyloid nucleation score of 0.418 ± 1. Work on FDRSWRGFAGPRQRTGLVVF yielded an amyloid nucleation score of -0.178 ± 0.51. Substance LLNGEQLQSSDNIRLWIAFR has an amyloid nucleation score of 0.151 ± 0.41. ISEKRISMCGIRNKYIWGHG showed an amyloid nucleation score of -0.953 ± 1.1. RWPVFNSCLSSSPRRAEYRY gave an amyloid nucleation score of 0.616 ± 0.59. In the case of FVLRLS, the amyloid nucleation score is reported as “inactive”. LYNVKTGFVRQTDVG showed an amyloid nucleation score of 0.106 ± 0.91. Substance GVMIWRQRWRKVIVGGALRW has an amyloid nucleation score of -0.217 ± 0.63.
